{"source": "patent US20060275806", "origin": "cited, not measured here", "key": {"[1]": {"system": "MDBP2 (methylated DNA binding protein 2)", "settings": "method not given"}, "MLL MT domain": {"system": "MLL MT domain", "settings": "method not given"}}, "note": "pKd: −log10 of the molar value. Read-outs that look alike come from different tables or passages of the source."}
{"substance": "DNA with single fully methylated CpG", "values": [{"measurement": "pKd", "setting": "[1]; 5mC at CpG, both strands, error 0.08 nM", "result": 8.57}]}
{"substance": "non-specific DNA", "values": [{"measurement": "pKd", "setting": "[1]; error 46.8 nM", "result": 6.72}]}
{"substance": "unmethylated CpG DNA", "values": [{"measurement": "pKd", "setting": "MLL MT domain", "result": 7.48}]}
